Assay results as given in US20190381086A1 (Scripps Research, published 2019).

T1: GST-APPBP1 (UniProt Q13564 1-534, limits assumed)
T1 construct: Fractions of a Superdex 200 run of GST-APPBP1/UBA3 that held only GST-APPBP1; also called APPBP1 subunit alone; E1 regulatory subunit APPBP1; not shown: GST tag
T1 sequence (looked up): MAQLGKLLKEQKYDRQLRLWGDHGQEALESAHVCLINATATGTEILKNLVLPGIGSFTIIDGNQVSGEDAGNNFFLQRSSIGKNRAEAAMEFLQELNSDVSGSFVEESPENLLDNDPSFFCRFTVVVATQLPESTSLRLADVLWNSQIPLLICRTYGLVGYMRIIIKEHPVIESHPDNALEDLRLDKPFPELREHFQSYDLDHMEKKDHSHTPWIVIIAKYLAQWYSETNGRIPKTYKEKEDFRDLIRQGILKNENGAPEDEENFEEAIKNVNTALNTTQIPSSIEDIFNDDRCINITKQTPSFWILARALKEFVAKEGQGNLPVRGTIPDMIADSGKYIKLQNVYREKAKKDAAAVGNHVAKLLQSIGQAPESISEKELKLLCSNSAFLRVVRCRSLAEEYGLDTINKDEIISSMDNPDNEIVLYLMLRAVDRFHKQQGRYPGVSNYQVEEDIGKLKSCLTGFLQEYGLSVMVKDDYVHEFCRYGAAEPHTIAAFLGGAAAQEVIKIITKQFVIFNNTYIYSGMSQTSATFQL

T2: E1 for neddylation, APPBP1/UBA3 heterodimer (UniProt Q13564 1-534; Q8TBC4 22-463)
T2 construct: GST-tagged or untagged preparations are mentioned; also called GST-APPBP1/UBA3; NAE; not shown: GST tag on APPBP1 (GST-APPBP1/UBA3)
T2 sequence (looked up) 1: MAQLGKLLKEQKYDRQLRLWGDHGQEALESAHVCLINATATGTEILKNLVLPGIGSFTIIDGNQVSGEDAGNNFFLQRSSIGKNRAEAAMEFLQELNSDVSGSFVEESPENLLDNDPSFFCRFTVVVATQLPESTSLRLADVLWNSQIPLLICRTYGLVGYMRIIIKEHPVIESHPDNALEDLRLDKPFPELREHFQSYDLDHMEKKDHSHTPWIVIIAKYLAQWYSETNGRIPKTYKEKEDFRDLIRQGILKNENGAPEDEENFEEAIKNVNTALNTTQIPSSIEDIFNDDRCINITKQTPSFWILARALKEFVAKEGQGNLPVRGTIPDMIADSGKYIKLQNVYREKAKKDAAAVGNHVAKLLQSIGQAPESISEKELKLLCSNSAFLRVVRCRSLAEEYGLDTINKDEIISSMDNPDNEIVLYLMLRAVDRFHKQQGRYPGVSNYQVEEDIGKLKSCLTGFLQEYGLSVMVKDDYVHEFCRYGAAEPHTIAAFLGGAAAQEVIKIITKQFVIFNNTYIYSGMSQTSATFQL
T2 sequence (looked up) 2: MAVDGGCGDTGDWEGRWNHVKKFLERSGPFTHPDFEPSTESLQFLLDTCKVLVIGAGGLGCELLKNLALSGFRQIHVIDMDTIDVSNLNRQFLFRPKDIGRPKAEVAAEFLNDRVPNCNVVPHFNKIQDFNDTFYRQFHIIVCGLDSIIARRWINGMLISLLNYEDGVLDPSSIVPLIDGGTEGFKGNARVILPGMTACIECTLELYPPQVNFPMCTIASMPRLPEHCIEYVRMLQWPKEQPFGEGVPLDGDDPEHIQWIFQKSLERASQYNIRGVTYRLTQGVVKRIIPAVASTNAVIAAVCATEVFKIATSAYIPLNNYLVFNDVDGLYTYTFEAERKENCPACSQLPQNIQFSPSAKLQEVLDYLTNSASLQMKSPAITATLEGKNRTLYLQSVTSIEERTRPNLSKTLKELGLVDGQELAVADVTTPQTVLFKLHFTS


Columns and labels:
GST-APPBP1 = biological target: T1, GST-APPBP1; experiment: biolayer interferometry, APPBP1 immobilized, ABD GlyRS 0.58-4.6 µM
[1] = biological target: T2, E1 for neddylation, APPBP1/UBA3 …; experiment: biolayer interferometry, E1 (APPBP1/UBA3) immobilized, analyte 62.5-500 nM
ubiquitin = biological target: T3, ubiquitin (UniProt P0CG48 1-76); experiment: His-tag pull-down
T3 construct: Bought protein

Kd (GST-APPBP1)	Kd [1]	binding result (ubiquitin)	Binder
144 nM	187 nM	–	ABD (V541-E685) of GlyRS (enzyme, Cloned, expressed and purified in a similar way as the full-length GlyRS; also called ABD GlyRS; ABD domain alone) VREGDEQRTFFSFPAVVAPFKCSVLPLSQNQEFMPFVKELSEALTRHGVSHKVDDSSGSIGRRYARTDEIGVAFGVTIDFDTVNKTPHTATLRDRDSMRQIRAEISELPSIVQDLANGNITWADVEARYPLFEGQETGKKETIEE
–	–	no binding	His-tagged full-length human GlyRS (glycyl-tRNA synthetase) (enzyme, also called His-tagged GlyRS; purified human GlyRS protein; not shown: His tag) MDGAGAEEVLAPLRLAVRQQGDLVRKLKEDKAPQVDVDKAVAELKARKRVLEAKELALQPKDDIVDRAKMEDTLKRRFFYDQAFAIYGGVSGLYDFGPVGCALKNNIIQTWRQHFIQEEQILEIDCTMLTPEPVLKTSGHVDKFADFMVKDVKNGECFRADHLLKAHLQKLMSDKKCSVEKKSEMESVLAQLDNYGQQELADLFVNYNVKSPITGNDLSPPVSFNLMFKTFIGPGGNMPGYLRPETAQGIFLNFKRLLEFNQGKLPFAAAQIGNSFRNEISPRSGLIRVREFTMAEIEHFVDPSEKDHPKFQNVADLHLYLYSAKAQVSGQSARKMRLGDAVEQGVINNTVLGYFIGRIYLYLTKVGISPDKLRFRQHMENEMAHYACDCWDAESKTSYGWIEIVGCADRSCYDLSCHARATKVPLVAEKPLKEPKTVNVVQFEPSKGAIGKAYKKDAKLVMEYLAICDECYITEMEMLLNEKGEFTIETEGKTFQLTKDMINVKRFQKTLYVEEVVPNVIEPSFGLGRIMYTVFEHTFHVREGDEQRTFFSFPAVVAPFKCSVLPLSQNQEFMPFVKELSEALTRHGVSHKVDDSSGSIGRRYARTDEIGVAFGVTIDFDTVNKTPHTATLRDRDSMRQIRAEISELPSIVQDLANGNITWADVEARYPLFEGQETGKKETIEE

More lines, now with the values behind:

Binder	Kd (GST-APPBP1)	Kd [1]	binding result (ubiquitin)
full-length human GlyRS (enzyme, A tag-free preparation is described (N-terminal His-SUMO tag removed by Ulp1); the His-tagged preparation may have been used in some of those; also called full-length GlyRS; tag-free full-length GlyRS) MDGAGAEEVLAPLRLAVRQQGDLVRKLKEDKAPQVDVDKAVAELKARKRVLEAKELALQPKDDIVDRAKMEDTLKRRFFYDQAFAIYGGVSGLYDFGPVGCALKNNIIQTWRQHFIQEEQILEIDCTMLTPEPVLKTSGHVDKFADFMVKDVKNGECFRADHLLKAHLQKLMSDKKCSVEKKSEMESVLAQLDNYGQQELADLFVNYNVKSPITGNDLSPPVSFNLMFKTFIGPGGNMPGYLRPETAQGIFLNFKRLLEFNQGKLPFAAAQIGNSFRNEISPRSGLIRVREFTMAEIEHFVDPSEKDHPKFQNVADLHLYLYSAKAQVSGQSARKMRLGDAVEQGVINNTVLGYFIGRIYLYLTKVGISPDKLRFRQHMENEMAHYACDCWDAESKTSYGWIEIVGCADRSCYDLSCHARATKVPLVAEKPLKEPKTVNVVQFEPSKGAIGKAYKKDAKLVMEYLAICDECYITEMEMLLNEKGEFTIETEGKTFQLTKDMINVKRFQKTLYVEEVVPNVIEPSFGLGRIMYTVFEHTFHVREGDEQRTFFSFPAVVAPFKCSVLPLSQNQEFMPFVKELSEALTRHGVSHKVDDSSGSIGRRYARTDEIGVAFGVTIDFDTVNKTPHTATLRDRDSMRQIRAEISELPSIVQDLANGNITWADVEARYPLFEGQETGKKETIEE	–	159 nM	–
His-tagged human TrpRS (tryptophanyl-tRNA synthetase) (enzyme, UniProt P23381 1-471, looked up, not shown: His tag) MPNSEPASLLELFNSIATQGELVRSLKAGNASKDEIDSAVKMLVSLKMSYKAAAGEDYKADCPPGNPAPTSNHGPDATEAEEDFVDPWTVQTSSAKGIDYDKLIVRFGSSKIDKELINRIERATGQRPHHFLRRGIFFSHRDMNQVLDAYENKKPFYLYTGRGPSSEAMHVGHLIPFIFTKWLQDVFNVPLVIQMTDDEKYLWKDLTLDQAYSYAVENAKDIIACGFDINKTFIFSDLDYMGMSSGFYKNVVKIQKHVTFNQVKGIFGFTDSDCIGKISFPAIQAAPSFSNSFPQIFRDRTDIQCLIPCAIDQDPYFRMTRDVAPRIGYPKPALLHSTFFPALQGAQTKMSASDPNSSIFLTDTAKQIKTKVNKHAFSGGRDTIEEHRQFGGNCDVDVSFMYLTFFLEDDDKLEQIRKDYTSGAMLTGELKKALIEVLQPLIAEHQARRKEVTDEIVKEFMTPRKLSFDFQ	–	–	no binding
